Source: publication PMC12609441, “Comparative Preclinical Evaluation of the Tumor-Targeting Properties of Radioiodine and Technetium-Labeled Designed Ankyrin Repeat Proteins for Imaging of Epidermal Growth Factor Receptor Expression in Malignant Tumors” (International Journal of Molecular Sciences, 2025)

Biological target: T1, epidermal growth factor receptor (EGFR) (human (endogenous in A-431, DU-145, …, UniProt P00533 25-1210))
T1 construct: also called ErbB1; HER1
Test: radioligand binding; saturation assay on living A-431 cells; eight concentrations of radiolabeled protein 0.22 to 40 nM, 4 h at 4 °C; nonspecific binding with 50-fold molar excess of unlabeled (HE)3-E01; nonlinear regression
Settings: one partner purified

Row | Kd [nM] | Binder
1 | 4.9 ± 0.5 | [^99mTc]Tc-(HE)3-E01 (designed binder, [^99mTc]Tc(CO)3^+ with the (HE)3 tag as a chelator at the N-terminus, DARPin E01 with the N-terminal (HE)3 tag; also called DARPin (HE)3-E01 labeled with [^99mTc]Tc(CO)3; technetium-labeled variant; source: E. coli, purified; labeled with [^99mTc]Tc(CO)3, isolated on NAP-5 size-exclusion column; not shown: (HE)3, N-terminal, kept) MRGSHEHEHEGSDLGKKLLEAARAGQDDEVRILMANGADVNADDTWGWTPLHLAAYQGHLEIVEVLLKNGADVNAYDYIGWTPLHLAADGHLEIVEVLLKNGADVNASDYIGDTPLHLAAHNGHLEIVEVLLKHGADVNAQDKFGKTAFDISIDNGNEDLAEILQKLN
2 | 2.5 ± 0.5 | [^123I]I-(HE)3-E01-PIB (designed binder, [^123I]I-para-iodobenzoate (PIB) conjugated to the N-terminal or one of eight lysine amino groups (site-unspecific), DARPin E01 with the N-terminal (HE)3 tag; source: E. coli, purified; not shown: (HE)3, N-terminal, kept) MRGSHEHEHEGSDLGKKLLEAARAGQDDEVRILMANGADVNADDTWGWTPLHLAAYQGHLEIVEVLLKNGADVNAYDYIGWTPLHLAADGHLEIVEVLLKNGADVNASDYIGDTPLHLAAHNGHLEIVEVLLKHGADVNAQDKFGKTAFDISIDNGNEDLAEILQKLN
